Experimental data reported in article doi:10.1101/2022.11.28.518222.

Molecular target: IRF6 (human, UniProt O14896 1-467)
Assay: EMSA

B1: IRF6 motif trimer EMSA probe (dsDNA)
DNA 1: TGGTTTCGGTTGACTTGGTTTCGGTTGACTTGGTTTCGGTTGA
DNA 2: TCAACCGAAACCAAGTCAACCGAAACCAAGTCAACCGAAACCA
  binding result: binds
